The values that follow come from patent US20240218339.

In data set [1] the test system is T1, MG31-1 (uncultivated microorganism (metagenomic)).
T1 sequence: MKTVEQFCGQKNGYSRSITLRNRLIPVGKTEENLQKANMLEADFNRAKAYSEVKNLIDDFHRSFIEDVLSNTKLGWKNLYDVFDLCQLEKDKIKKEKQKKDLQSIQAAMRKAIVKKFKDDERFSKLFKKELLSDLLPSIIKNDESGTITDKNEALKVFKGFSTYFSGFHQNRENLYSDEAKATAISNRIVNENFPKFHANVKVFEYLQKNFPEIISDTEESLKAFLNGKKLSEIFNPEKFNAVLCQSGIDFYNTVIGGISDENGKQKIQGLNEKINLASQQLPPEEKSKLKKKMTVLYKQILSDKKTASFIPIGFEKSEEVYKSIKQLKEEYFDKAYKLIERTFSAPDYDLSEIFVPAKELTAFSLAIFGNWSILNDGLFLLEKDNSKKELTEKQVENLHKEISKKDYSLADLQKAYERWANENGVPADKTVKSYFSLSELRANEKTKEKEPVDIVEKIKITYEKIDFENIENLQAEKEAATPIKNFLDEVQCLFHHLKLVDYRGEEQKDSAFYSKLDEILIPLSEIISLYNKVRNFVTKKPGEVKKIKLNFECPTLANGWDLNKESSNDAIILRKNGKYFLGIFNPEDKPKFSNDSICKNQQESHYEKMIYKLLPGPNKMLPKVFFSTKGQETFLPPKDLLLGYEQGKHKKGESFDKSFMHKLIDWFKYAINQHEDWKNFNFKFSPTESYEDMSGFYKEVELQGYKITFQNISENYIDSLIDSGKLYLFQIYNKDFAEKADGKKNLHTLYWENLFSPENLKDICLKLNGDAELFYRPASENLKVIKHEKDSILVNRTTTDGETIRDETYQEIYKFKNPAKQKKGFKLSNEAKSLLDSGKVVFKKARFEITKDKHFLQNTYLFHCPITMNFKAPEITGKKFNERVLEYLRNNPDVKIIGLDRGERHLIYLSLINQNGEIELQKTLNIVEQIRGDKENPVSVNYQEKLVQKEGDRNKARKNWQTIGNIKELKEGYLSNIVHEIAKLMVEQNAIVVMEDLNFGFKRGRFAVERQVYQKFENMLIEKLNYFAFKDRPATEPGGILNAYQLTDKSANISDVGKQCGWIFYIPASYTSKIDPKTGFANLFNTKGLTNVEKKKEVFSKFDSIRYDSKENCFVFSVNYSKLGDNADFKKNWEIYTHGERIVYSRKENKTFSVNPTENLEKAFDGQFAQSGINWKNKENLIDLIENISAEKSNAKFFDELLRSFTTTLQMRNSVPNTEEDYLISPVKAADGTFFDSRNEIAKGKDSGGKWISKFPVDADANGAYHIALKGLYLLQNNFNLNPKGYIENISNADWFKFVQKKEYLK
In words: cell_activity. The following applies: HEK cells.

The test system of data set [2] is T2, MG29-1 (uncultivated microorganism (metagenomic)).
T2 sequence: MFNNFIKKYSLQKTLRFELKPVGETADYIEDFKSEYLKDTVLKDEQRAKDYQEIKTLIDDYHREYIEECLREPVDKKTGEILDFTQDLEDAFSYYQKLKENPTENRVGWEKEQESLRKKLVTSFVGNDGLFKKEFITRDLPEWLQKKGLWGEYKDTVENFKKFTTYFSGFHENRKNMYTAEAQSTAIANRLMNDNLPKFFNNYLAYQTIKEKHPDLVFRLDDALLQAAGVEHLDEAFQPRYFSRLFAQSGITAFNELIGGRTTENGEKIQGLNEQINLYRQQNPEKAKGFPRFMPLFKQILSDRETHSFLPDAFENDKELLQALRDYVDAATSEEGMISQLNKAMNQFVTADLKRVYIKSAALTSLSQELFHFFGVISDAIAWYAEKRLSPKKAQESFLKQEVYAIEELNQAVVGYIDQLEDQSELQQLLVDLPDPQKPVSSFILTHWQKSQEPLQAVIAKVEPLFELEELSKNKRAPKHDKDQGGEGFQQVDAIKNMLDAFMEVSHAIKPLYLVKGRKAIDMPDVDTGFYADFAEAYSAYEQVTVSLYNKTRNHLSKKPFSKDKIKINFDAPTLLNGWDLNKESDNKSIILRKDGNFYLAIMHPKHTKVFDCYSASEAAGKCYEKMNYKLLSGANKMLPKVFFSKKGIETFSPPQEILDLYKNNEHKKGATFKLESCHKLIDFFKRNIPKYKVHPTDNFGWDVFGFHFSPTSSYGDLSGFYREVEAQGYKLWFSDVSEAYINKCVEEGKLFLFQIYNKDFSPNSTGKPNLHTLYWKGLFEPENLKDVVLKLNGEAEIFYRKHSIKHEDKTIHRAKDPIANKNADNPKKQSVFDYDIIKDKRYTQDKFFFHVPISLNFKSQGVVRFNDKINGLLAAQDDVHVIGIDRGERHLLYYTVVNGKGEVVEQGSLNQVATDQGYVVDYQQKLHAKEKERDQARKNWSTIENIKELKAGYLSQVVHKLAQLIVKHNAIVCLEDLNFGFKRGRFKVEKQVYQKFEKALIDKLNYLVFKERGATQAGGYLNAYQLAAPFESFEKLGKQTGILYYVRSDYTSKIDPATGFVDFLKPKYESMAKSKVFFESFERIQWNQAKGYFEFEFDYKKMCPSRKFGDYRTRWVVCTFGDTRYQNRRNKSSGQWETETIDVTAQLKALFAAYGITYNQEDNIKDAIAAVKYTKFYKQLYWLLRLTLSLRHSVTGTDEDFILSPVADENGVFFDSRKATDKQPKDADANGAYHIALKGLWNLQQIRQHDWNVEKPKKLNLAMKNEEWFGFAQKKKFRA
Briefly: cell_activity.

On to “AAUUUCUACUAUUGUAGAUNUGAAGUCUUACAAGGUUAUCUUAU / TTTGTATTTGTGAAGTCTTACAAGGTTATCTTAT / ATAAGATAACCTTGTAAGACTTCACAAATACAAA [MG31-1 guide albumin target4 ; Albumin target4]”, for which the activity in data set [1] (PAM YTTn (TTTG), SD 2.72) was determined as 7.05 % NHEJ. As to “AAUUUCUACUAUUGUAGAUNCGCACUAAGGAAAGUGCAAAGU / TTTGCGCACTAAGGAAAGTGCAAAGT / ACTTTGCACTTTCCTTAGTGCGCAAA [hAlb_g87 sgRNA ; human albumin intron 1 g87 site]”, the activity in data set [2] (PAM TTTG, RNP nucleofection HepG2, guide backbone inferred) is 97 % indel. Regarding “AAUUUCUACUAUUGUAGAUNGCCAGAGCCGGGGUGUGCAGACGG / TCCCTCTTTAGCCAGAGCCGGGGTGTGCAGACGG / CCGTCTGCACACCCCGGCTCTGGCTAAAGAGGGA [MG31-1 guide VEGFA target9 ; VEGFA target9]”, the activity in data set [1] (PAM YTTn (TTTA), SD 1.92) is 6.72 % NHEJ. On to “AAUUUCUACUAUUGUAGAUNCUUGGACCUUGUUUUGCUUACUGU / ACAAATTTTACTTGGACCTTGTTTTGCTTACTGT / ACAGTAAGCAAAACAAGGTCCAAGTAAAATTTGT”, for which the activity in data set [1] (PAM TTTA, SD 0.75) was -0.32 % NHEJ. Turning to “AAUUUCUACUAUUGUAGAUNGGAGGUCAGAAAUAGGGGGUCCAG / TAGCTGTTTGGGAGGTCAGAAATAGGGGGTCCAG / CTGGACCCCCTATTTCTGACCTCCCAAACAGCTA [MG31-1 guide VEGFA target7 ; VEGFA target7]”, in data set [1] (PAM YTTn (TTTG), SD 8.67), the activity is 17.4 % NHEJ.

With “AAUUUCUACUAUUGUAGAUNCCGAUCGUUACAGGAAAAUCUG / GTTCCCGATCGTTACAGGAAAATCTG / CAGATTTTCCTGTAACGATCGGGAAC [mAlb29-1-2 sgRNA ; mouse albumin intron 1 mAlb29-1-2 site]”, the activity in data set [2] (PAM GTTC, Hepa1-6 RNP nucleofection, guide backbone inferred) turned out to be 0 % indel. Turning to “AAUUUCUACUAUUGUAGAUNGAAAGGGGGUGGGGGGAGUUUGCU / ATGGGCTTTGGAAAGGGGGTGGGGGGAGTTTGCT / AGCAAACTCCCCCCACCCCCTTTCCAAAGCCCAT [MG29-1 guide VEGFA target8 ; VEGFA target8]”, the activity in data set [2] (PAM KTTG (TTTG), HEK293T plasmid transfection, SD 10.17) was determined as 30.1 % NHEJ.

As to “AAUUUCUACUAUUGUAGAUNUGUGAGGGAGCACCGUUCUCUAGA / TACATAGTTGTGTGAGGGAGCACCGTTCTCTAGA / TCTAGAGAACGGTGCTCCCTCACACAACTATGTA”, the activity in data set [2] (PAM KTTG (GTTG), HEK293T plasmid transfection, SD 1.57) came to 30.4 % NHEJ.
